According to PMC9635285:
“And” between values parts separate entries of the source, which are not always exact repeats. Equal entries are not always repeated.

Key:
[1] = target: Taxol-stabilised microtubules polymerised from porcine brain tubulin (porcine) (UniProt P02550); test: co-sedimentation
[2] = target: subtilisin-digested microtubules (lacking E-hooks) (porcine) (UniProt P02550); test: co-sedimentation

Chain of UniProt P02550 (P02550 whole entry, looked up): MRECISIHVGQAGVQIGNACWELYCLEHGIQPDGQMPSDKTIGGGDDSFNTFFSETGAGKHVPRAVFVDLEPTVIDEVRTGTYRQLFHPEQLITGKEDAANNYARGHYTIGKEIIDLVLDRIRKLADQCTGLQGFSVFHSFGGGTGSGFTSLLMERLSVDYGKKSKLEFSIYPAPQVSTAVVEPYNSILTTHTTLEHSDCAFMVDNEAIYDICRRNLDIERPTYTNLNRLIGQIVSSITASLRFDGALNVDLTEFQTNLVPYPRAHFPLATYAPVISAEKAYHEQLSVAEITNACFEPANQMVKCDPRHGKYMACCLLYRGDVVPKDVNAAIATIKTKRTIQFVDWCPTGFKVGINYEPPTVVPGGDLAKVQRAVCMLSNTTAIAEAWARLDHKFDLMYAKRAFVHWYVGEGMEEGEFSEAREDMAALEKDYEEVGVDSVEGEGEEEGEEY

Row | Shift to pellet (%) [1] | Shift to pellet (%) [2] | Substance
1 | 52.7% and 50.8% | 26.7% | KLP-18 C-stalk (C-terminal half of the KLP-18 stalk) (domain or fragment)
2 | 56.1% and 41.6% | – | MBP-MESP-1 (natural protein)
